Measured values: patent publication US20190300618A1 (Merck Sharp & Dohme, published 2019)

Assays:
R37A [1] = target: T1, R37A; test: flow cytometry, CHO-K1; sub-column 2 of 2
T1 construct: also called hCD27 R37A
T1 receptor: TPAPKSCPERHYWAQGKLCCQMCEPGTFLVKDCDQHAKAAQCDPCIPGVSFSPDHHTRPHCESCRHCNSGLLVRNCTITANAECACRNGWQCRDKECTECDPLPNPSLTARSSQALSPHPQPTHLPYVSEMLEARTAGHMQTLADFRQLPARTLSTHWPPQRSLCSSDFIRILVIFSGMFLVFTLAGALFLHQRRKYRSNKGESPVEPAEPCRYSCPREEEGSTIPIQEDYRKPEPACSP

P8A [2] = target: T2, P8A; test: flow cytometry, CHO-K1; sub-column 2 of 2
T2 construct: also called hCD27 P8A
T2 receptor: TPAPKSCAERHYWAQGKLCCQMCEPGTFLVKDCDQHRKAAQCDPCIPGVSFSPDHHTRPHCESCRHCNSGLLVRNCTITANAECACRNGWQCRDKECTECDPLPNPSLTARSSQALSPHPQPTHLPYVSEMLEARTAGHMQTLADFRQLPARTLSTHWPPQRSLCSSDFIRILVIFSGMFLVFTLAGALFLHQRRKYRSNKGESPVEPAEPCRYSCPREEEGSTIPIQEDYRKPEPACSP

D32A [3] = target: T3, D32A; test: flow cytometry, CHO-K1; sub-column 2 of 2
T3 construct: also called hCD27 D32A
T3 receptor: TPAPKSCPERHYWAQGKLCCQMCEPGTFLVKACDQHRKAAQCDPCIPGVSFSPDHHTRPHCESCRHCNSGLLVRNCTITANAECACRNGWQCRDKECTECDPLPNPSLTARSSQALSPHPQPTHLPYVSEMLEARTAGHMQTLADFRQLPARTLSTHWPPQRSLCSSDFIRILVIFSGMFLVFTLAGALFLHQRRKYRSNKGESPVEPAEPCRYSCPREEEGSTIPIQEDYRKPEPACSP

Q15A [4] = target: T4, Q15A; test: flow cytometry, CHO-K1; sub-column 2 of 2
T4 construct: also called hCD27 Q15A
T4 receptor: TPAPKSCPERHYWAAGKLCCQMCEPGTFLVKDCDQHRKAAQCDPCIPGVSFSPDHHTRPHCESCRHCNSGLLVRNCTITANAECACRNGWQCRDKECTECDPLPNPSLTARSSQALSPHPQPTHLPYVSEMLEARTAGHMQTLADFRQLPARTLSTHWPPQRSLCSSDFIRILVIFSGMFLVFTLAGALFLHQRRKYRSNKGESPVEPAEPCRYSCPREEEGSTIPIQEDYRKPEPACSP

W90A = test: flow cytometry, CHO-K1; sub-column 1 of 2
S63A = test: flow cytometry, CHO-K1; sub-column 1 of 2
G16A = test: flow cytometry, CHO-K1; sub-column 1 of 2
K38A = test: flow cytometry, CHO-K1; sub-column 1 of 2
R37A [5] = test: flow cytometry, CHO-K1; sub-column 1 of 2
K31A = test: flow cytometry, CHO-K1; sub-column 1 of 2
D43A = test: flow cytometry, CHO-K1; sub-column 1 of 2
D32A [6] = test: flow cytometry, CHO-K1; sub-column 1 of 2
E9A = test: flow cytometry, CHO-K1; sub-column 1 of 2
V30A = test: flow cytometry, CHO-K1; sub-column 1 of 2
P8A [7] = test: flow cytometry, CHO-K1; sub-column 1 of 2
R87A = test: flow cytometry, CHO-K1; sub-column 1 of 2
F28A = test: flow cytometry, CHO-K1; sub-column 1 of 2
R93A = test: flow cytometry, CHO-K1; sub-column 1 of 2
P44A = test: flow cytometry, CHO-K1; sub-column 1 of 2
V49A = test: flow cytometry, CHO-K1; sub-column 1 of 2
H36A = test: flow cytometry, CHO-K1; sub-column 1 of 2
Q41A = test: flow cytometry, CHO-K1; sub-column 1 of 2
Q91A = test: flow cytometry, CHO-K1; sub-column 1 of 2
G89A = test: flow cytometry, CHO-K1; sub-column 1 of 2
W13A = test: flow cytometry, CHO-K1; sub-column 1 of 2
H60A = test: flow cytometry, CHO-K1; sub-column 1 of 2
N88A = test: flow cytometry, CHO-K1; sub-column 1 of 2
I46A = test: flow cytometry, CHO-K1; sub-column 1 of 2
R10A = test: flow cytometry, CHO-K1; sub-column 1 of 2
K17A = test: flow cytometry, CHO-K1; sub-column 1 of 2
Q15A [8] = test: flow cytometry, CHO-K1; sub-column 1 of 2
[9] = target: Macaca mulatta CD27 (mmCD27), expressed on cells (Macaca mulatta (rhesus); same entry given for cynomolgus monkey); test: flow cytometry MFI on CD4+ T cells from rhesus peripheral blood
[10] = target: Macaca mulatta CD27 (mmCD27), expressed on cells (Macaca mulatta (rhesus); same entry given for cynomolgus monkey); test: cell ELISA on CD27-transfected CHOK1 cells
[11] = target: human CD27 (A59T), expressed on cells (human) (UniProt P26842); test: cell ELISA on CD27-transfected CHOK1 cells
[12] = target: human CD27 (wild type), expressed on cells (human) (UniProt P26842); test: flow cytometry MFI on CD4+ T cells from peripheral blood

For 1A4 (mouse IgG1) (antibody), the % of WT hCD27 binding (geo mean FITC) (R37A [1]) was 87%, the % of WT hCD27 binding (geo mean FITC) (P8A [2]) was 79.1% and the % of WT hCD27 binding (geo mean FITC) (D32A [3]) was 8.7%. For the same molecule, the % of WT hCD27 binding (geo mean FITC) (Q15A [4]) was 7.6%.

9F4 (mouse IgG2a) (antibody) was tested, and the % of WT hCD27 binding (geo mean FITC) (R37A [1]) was 6.2%, the % of WT hCD27 binding (geo mean FITC) (P8A [2]) was 62.2% and the % of WT hCD27 binding (geo mean FITC) (D32A [3]) was 66.3%. It also gave a % of WT hCD27 binding (geo mean FITC) (Q15A [4]) of 118%.

With 1F5 hIgG1 (antibody) the % of WT hCD27 binding (geo mean FITC) (W90A) was 42.5%, the % of WT hCD27 binding (geo mean FITC) (S63A) was 144% and the % of WT hCD27 binding (geo mean FITC) (G16A) was 96%. The % of WT hCD27 binding (geo mean FITC) (K38A) was 96.5%, the % of WT hCD27 binding (geo mean FITC) (R37A [5]) was 109% and the % of WT hCD27 binding (geo mean FITC) (K31A) was 205%. It also gave a % of WT hCD27 binding (geo mean FITC) (D43A) of 202%, a % of WT hCD27 binding (geo mean FITC) (D32A [6]) of 115% and a % of WT hCD27 binding (geo mean FITC) (E9A) of 95.4%. It also gave a % of WT hCD27 binding (geo mean FITC) (V30A) of 171%, a % of WT hCD27 binding (geo mean FITC) (P8A [7]) of 82.5% and a % of WT hCD27 binding (geo mean FITC) (R87A) of 40.8%. It also gave a % of WT hCD27 binding (geo mean FITC) (F28A) of 113%, a % of WT hCD27 binding (geo mean FITC) (R93A) of 120% and a % of WT hCD27 binding (geo mean FITC) (P44A) of 150%. The % of WT hCD27 binding (geo mean FITC) (V49A) was 143%, the % of WT hCD27 binding (geo mean FITC) (H36A) was 116% and the % of WT hCD27 binding (geo mean FITC) (Q41A) was 104%. The % of WT hCD27 binding (geo mean FITC) (Q91A) was 156%, the % of WT hCD27 binding (geo mean FITC) (G89A) was 103% and the % of WT hCD27 binding (geo mean FITC) (W13A) was 89.5%. For the same molecule, the % of WT hCD27 binding (geo mean FITC) (H60A) was 176%, the % of WT hCD27 binding (geo mean FITC) (N88A) was 153% and the % of WT hCD27 binding (geo mean FITC) (I46A) was 128%. It also gave a % of WT hCD27 binding (geo mean FITC) (R10A) of 105%, a % of WT hCD27 binding (geo mean FITC) (K17A) of 95.1% and a % of WT hCD27 binding (geo mean FITC) (Q15A [8]) of 99%. For the same molecule, the EC50 [9] was 1.58 nM, the EC50 [10] was 0.193 nM and the EC50 [11] was 0.326 nM. For the same molecule, the EC50 [12] was 1.54 nM.

B1: Antibody hCD27.131A (mouse parental 131A) (antibody, V domains shown)
VH: QIQLVQSGPELKKPGETVKISCKASGYTFTNYGMNWVKQAPGKGLKWMGWINTNTGEPTYAEEFKGRFAFSLETSATTAYLQINNLKNEDTATYFCAREGDAMDYWGQGTSVTVSS
VL: QIVLTQSPAIMSASPGEKVTMTCSASSSVSYMHWYQQKSGTSPKRWIYDTSKLASGVPARFSGSGSGTSYSLTISSMEAEDAATYYCQQWNSYPFTFGSGTKLEIK
notes: mouse IgG1; also called mouse hCD27.131A
B1 was tested, and the “% of WT hCD27 binding (geo mean FITC)” value (R37A [1]) was 9.6%, the “% of WT hCD27 binding (geo mean FITC)” value (P8A [2]) was 15.9% and the “% of WT hCD27 binding (geo mean FITC)” value (D32A [3]) was 62.1%. The “% of WT hCD27 binding (geo mean FITC)” value (Q15A [4]) was 136%.
